Source: US20210347908A1 (ELPISCIENCE SUZHOU BIOPHARMA, published 2021)
Like-named read-outs stand apart in the source and are kept apart here.

T1: 6×His tagged C57BL/6 mouse SIRPα ECD recombinant protein (mouse (C57BL/6), UniProt P97797 32-373)
T1 construct: extracellular domain; bought; also called mSIRPα (C57BL/6); mouse SIRPα (C57BL/6) ECD
T1 sequence: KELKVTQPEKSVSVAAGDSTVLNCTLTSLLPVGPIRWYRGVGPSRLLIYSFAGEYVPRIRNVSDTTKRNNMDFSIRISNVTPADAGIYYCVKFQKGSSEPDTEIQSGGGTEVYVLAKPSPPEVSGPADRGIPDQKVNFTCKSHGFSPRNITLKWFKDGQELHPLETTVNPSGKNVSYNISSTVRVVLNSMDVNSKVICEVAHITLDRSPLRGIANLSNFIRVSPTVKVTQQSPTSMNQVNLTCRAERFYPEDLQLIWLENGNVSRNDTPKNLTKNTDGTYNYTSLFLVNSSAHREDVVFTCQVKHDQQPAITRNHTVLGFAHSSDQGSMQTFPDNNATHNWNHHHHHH


Experiments:
[1] = biological target: T2, biotin labeled soluble human SIRPα v1 ECD recombinant protein (human, UniProt P78324 31-373, biotin labeled); experiment: competitive ELISA; competitor 055
T2 construct: extracellular domain
T2 sequence (P78324 31-373): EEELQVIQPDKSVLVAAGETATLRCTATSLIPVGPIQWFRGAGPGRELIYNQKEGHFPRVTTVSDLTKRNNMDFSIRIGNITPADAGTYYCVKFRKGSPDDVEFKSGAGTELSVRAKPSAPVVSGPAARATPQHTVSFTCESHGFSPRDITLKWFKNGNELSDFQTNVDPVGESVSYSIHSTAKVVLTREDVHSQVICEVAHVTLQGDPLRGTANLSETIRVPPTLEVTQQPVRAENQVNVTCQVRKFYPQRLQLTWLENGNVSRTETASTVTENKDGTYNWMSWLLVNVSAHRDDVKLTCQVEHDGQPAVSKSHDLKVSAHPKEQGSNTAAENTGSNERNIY
Experimental: (§1) Competitive ELISA assay was used for epitope binning of 9 functional antibodies. Briefly excessive competitor antibody and biotin labeled soluble human SIRPα v1 ECD recombinant protein were co-incubated with ELISA microplate coated antibody. After washing, HRP-SA was added and incubated at 37° C. for 1 hour. Then, […] of TMB solution (Biotechnology) was added. After incubation for 15 minutes at room temperature, the reaction was stopped by the addition of […] of 1N HCl. OD 450 nm was read. Competition ratio was calculated. The antibodies that can compete each other for binding to SIRPα have the similar binding epitope.

[2] = biological target: T2, biotin labeled soluble human SIRPα v1 …; experiment: competitive ELISA; competitor HEFLB
Experimental: as §1

[3] = biological target: T3, Fc tagged human SIRPγ ECD recombinant protein (human, UniProt Q9P1W8 29-360); experiment: ELISA
T3 construct: range 1-360; cloned range includes the signal peptide; also called hSIRPγ; not shown: human IgG Fc region (hFc) of the pCPC vector
T3 sequence (Q9P1W8 29-360 limits assumed, form in doubt): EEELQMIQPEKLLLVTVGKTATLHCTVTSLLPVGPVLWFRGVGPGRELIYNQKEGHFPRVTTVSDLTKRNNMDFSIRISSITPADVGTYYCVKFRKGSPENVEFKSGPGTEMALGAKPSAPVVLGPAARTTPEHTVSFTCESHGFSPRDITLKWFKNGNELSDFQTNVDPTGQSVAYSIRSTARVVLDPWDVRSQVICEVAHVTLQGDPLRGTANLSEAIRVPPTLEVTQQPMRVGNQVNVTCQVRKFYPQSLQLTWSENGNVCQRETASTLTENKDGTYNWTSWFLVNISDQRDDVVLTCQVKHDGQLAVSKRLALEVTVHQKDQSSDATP
In short: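 OD 450 nm readings gave EC₅₀ values after a TMB reaction of 15 min at room temperature, stopped with 1N HCl. Before that, antibodies were bound to antigen-coated wells for 1 h at 37° C. An HRP-labelled anti-mouse or anti-human IgG secondary was then applied for a further 1 h at 37° C.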

[4] = biological target: T2, biotin labeled soluble human SIRPα v1 …; experiment: competitive ELISA; competitor 022
Experimental: as §1

[5] = biological target: T2, biotin labeled soluble human SIRPα v1 …; experiment: competitive ELISA; competitor 050
Experimental: as §1

[6] = biological target: T1, 6×His tagged C57BL/6 mouse SIRPα ECD …; experiment: SPR (Biacore), antibody captured
Experimental: (§2) Anti-SIRPα chimeric antibodies were characterized for binding affinity against human SIRPα v1, human SIRPα v2 and C57BL/6 mouse SIRPα using Biacore (GE). Briefly the antibodies to be tested were captured to CM5 chip (GE) using Human Antibody Capture Kit (GE). The antigens of 6×His tagged human SIRPα v1, human SIRPα v2 and C57BL/6 mouse SIRPα ECD recombinant proteins were serially diluted for multiple doses and injected at 30 μl/min for 180 s. Buffer flow was maintained for dissociation of 400 s. 3 M MgCl₂ was used for chip regeneration. The association and dissociation curves were fit with 1:1 binding model, and the Ka/Kd/KD values for each antibody were calculated.

[7] = biological target: T4, 6×His tagged human SIRPα v1 ECD recombinant protein (human, UniProt P78324 31-373); experiment: SPR (Biacore), antibody captured
T4 construct: extracellular domain; bought; also called hSIRPα V1 (SPR antigen)
T4 sequence (P78324 other isoform, or with tags, fused parts or gaps): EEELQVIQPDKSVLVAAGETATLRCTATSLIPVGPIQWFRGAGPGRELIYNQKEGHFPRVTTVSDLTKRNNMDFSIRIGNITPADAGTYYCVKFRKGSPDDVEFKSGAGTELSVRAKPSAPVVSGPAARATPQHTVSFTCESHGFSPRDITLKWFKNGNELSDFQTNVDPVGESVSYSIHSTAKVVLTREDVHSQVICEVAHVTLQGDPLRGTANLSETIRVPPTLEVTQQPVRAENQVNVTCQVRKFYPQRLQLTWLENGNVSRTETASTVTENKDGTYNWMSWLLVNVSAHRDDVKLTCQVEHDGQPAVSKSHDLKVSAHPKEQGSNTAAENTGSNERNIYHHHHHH
Experimental: as §2

[8] = biological target: 6×His tagged human SIRPα v2 ECD recombinant protein (human); experiment: SPR (Biacore), antibody captured
Chain of 6×His tagged human SIRPα v2 ECD recombinant protein (human) (chain, as listed by the source): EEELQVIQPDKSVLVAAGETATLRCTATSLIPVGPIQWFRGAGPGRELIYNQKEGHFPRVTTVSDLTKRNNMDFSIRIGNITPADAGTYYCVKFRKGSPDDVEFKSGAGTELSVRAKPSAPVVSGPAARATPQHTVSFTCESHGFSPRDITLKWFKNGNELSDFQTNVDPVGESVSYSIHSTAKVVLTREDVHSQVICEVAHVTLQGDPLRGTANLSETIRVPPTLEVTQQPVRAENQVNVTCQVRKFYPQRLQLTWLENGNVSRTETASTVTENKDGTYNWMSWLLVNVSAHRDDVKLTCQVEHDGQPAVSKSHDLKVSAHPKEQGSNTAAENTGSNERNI
Experimental: as §2

[9] = biological target: T5, Fc tagged human SIRPα v2 ECD recombinant protein (human); experiment: ELISA
T5 construct: range 1-369; cloned range M1-R369 includes the signal peptide; also called hSIRPα V2
In short: (§3)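 Readout is OD 450 nm, with EC₅₀ derived from it, after TMB development for 15 min at RT and an HCl stop. Before that, antibodies were bound to coated Fc-tagged human SIRP ECD antigens for 1 h at 37 °C, followed by 1 h at 37 °C with HRP-labelled anti-mouse or anti-human IgG secondary.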

[10] = biological target: T6, Fc tagged human SIRPβ ECD recombinant protein (human, UniProt O00241 30-371); experiment: ELISA
T6 construct: range 1-371; cloned range includes the signal peptide; also called hSIRPβ; not shown: human IgG Fc region (hFc) of the pCPC vector
T6 sequence (O00241 30-371 limits assumed, form in doubt): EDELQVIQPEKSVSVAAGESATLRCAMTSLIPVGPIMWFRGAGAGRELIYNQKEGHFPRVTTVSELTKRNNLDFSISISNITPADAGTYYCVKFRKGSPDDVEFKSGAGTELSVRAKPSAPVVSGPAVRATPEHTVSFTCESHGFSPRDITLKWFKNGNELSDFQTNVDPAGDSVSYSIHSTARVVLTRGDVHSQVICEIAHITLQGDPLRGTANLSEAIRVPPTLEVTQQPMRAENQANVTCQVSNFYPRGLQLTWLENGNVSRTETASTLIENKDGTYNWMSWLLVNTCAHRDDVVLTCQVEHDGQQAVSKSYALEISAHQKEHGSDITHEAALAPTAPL
In short: as §3

[11] = biological target: T3, Fc tagged human SIRPγ ECD recombinant …; experiment: ELISA; remark: listed apart in the source
In short: as §3

[12] = biological target: T3, Fc tagged human SIRPγ ECD recombinant …; experiment: ELISA; remark: listed apart in the source
In short: as §3

Row | % Competition [1] [%] | % Competition [2] [%] | EC50 [3] [nM] | % Competition [4] [%] | % Competition [5] [%] | binding result [6] | Kd [7] [nM] | koff [7] [s⁻¹] | kon [7] [M⁻¹ s⁻¹] | Kd [8] [nM] | koff [8] [s⁻¹] | kon [8] [M⁻¹ s⁻¹] | EC50 [9] [nM] | EC50 [10] [nM] | Kd [6] [nM] | koff [6] [s⁻¹] | kon [6] [M⁻¹ s⁻¹] | EC50 [11] [nM] | EC50 [12] [nM] | Binder
1 | 1 | 1 | 0.76 | 81 | 79 |  |  |  |  |  |  |  |  |  |  |  |  |  |  | Antibody 022 (hybridoma antibody) (antibody, V domains shown, mouse hybridoma antibody) VH: QIQLVQSGPELKKPGETVKISCKASGYTFTDYAMHWVKQAPGKGLKWMGWKNTETGESTYAEDFKGRFAFFLETSASTAYLQINNVKNEDTATYFCARGGYGSNYVMDYWGQGTSVIVSS VL: DIQMTQSSSSFSVSLGDRVTITCKASEDIYNRLAWYQQKPGNAPRLLISGATSLETGVPSRFSGSGSGKDYTLSITSLQTEDVATYYCQQYWNSPRTFGGGTKLEIK
2 |  |  |  |  |  | no binding | 16.6 | 0.00141 | 85100 | 28.5 | 0.00138 | 48300 | 0.11 |  |  |  |  |  |  | chimeric antibody 055c (antibody, V domains shown) VH: EVKLVESEGGLVQPGDSMKLSCTASGFTFSDYFMTWIRQVPEKGLEWIANVNYDGRSTYYLDSLKSRFIISRDNANNILYLQMSSLKSEDTATYYCAREGSQTPLYAVDYWGQGTSVTVSS VL: DIVMTQSQKFMSTTVGDRVNITCKASQNVGTAVAWYQQKPGQSPKLLIYLASNRYTGVPDRFTGSGSGTDFTLTVSDMRSEDLADYFCQQYSIYPFTFGSGTKLEIK
3 | -16 | -14 | 0.38 | 79 | 83 |  |  |  |  |  |  |  |  |  |  |  |  |  |  | Antibody 050 (hybridoma antibody) (antibody, V domains shown, mouse hybridoma antibody) VH: QIQLVQSGPELKKPGETVKISCKASGYTFTHYSMHWVKQAPGKGLKWMGWINTETAEPTYVDDFKGRFAFSLEASASTAFFQINNLKNEDTATYFCARGGLRQGDYWGQGTTLTVSS VL: QIVLTQSPPIMSASPGEKVTLTCSATSSVSASYLYWFQQKPGSSPKLWIYSTSNLASGVPARFSGSGSGTSYSLTISNMEPADAASYFCHQWSSYPYTFGGGTKLEIK
4 |  |  |  |  |  | no binding | 11.4 | 0.000855 | 74900 | 20.6 | 0.000816 | 39700 | 0.09 | 0.12 |  |  |  |  |  | chimeric antibody 001c (antibody, V domains shown) VH: EVKLEESGGGLVQPGGSMKLSCVASGFTFRNYWMNWVRQSPERGLEWIAEISLKSNTYATHYAESVKGRFAISRDGSKSSFYLQMNDLRAEDTGIYYCTTFTKVVADWHLDVWGAGTTVTVSS VL: DVLMTQTPLSLPVSLGDQASISCRSSQNIVHSNGNTYLEWYLQKPGQSPKLLIYKVSNRFSGVPDRFSGSGSGTDFTLRISRVEAEDLGVYYCFQGSHVPFTFGSGTKLEIK
5 |  |  |  |  |  | no binding | 16.1 | 0.00148 | 92000 | 28.3 | 0.00146 | 51600 | 0.06 | 0.11 |  |  |  |  |  | chimeric antibody 002c (antibody, V domains shown) VH: EVKLEESGGGLVQPGGSMILSCVASGFTFRNYWMNWVRQSPERGLEWIAEITLKSNTYATHYAESVKGRFAISRDDSKSSFYLQMNDLRPEDTGIYYCTTFTKVVADWHLDVWGAGTTVTVSS VL: DVLMTQTPLSLPVSLGDQASISCRSSQNIVHSNGNTYLEWYLQKPGQSPKLLIYKISNRFSGVPDRFSGSGSGTDFTLRISRVEAEDLGVYYCFQGSHVPFTFGSGTKLEIQ
6 |  |  |  |  |  |  | 8.92 | 0.000834 | 93500 | 14.7 | 0.000774 | 52600 | 0.11 | 0.12 |  |  |  |  |  | chimeric antibody 032c (antibody, V domains shown) VH: EVRLEESGGGLVQPGGSMKLSCVVSGFTFRNYWMNWVRQSPERGLEWIAEITLKSNTYATHYAESVKGRFAISRDDSKSSFYLQMNDLRPEDTGIYYCTTFTKVVADWHLDVWGAGTTVTVSS VL: DVLMTQTPLSLPVNLGDQASISCRSSQNIVHSNGNTYLEWYLQKPGQSPKLLIYKVSNRFSGVPDRFSGSGSGTDFTLRISRVEAEDLGVYYCFQGSHVPFTFGSGTKLEIK
7 |  |  |  |  |  | no binding | 4.4 | 0.000229 | 52100 | 25.2 | 0.000515 | 20400 | 0.14 | 0.11 |  |  |  |  |  | chimeric antibody 074c (antibody, V domains shown) VH: QVQLQQPRAELVKPGASVMLSCKASGYTFSSYWIHWVRQGPGQGLEWIGLIHPNSGNTDCSETFKNKATLTVDTSSSTAYMQLSSLASEDSAVYYCARDGASYDWFVHWGQGTLVTVSA VL: not shown
8 |  |  |  |  |  | no binding | 1.49 | 0.000141 | 94400 |  |  |  |  | 0.24 |  |  |  |  |  | chimeric antibody 060c (antibody, V domains shown) VH: QVQLKESGPGLVAPSESLSITCTVSGFSLTNYDISWIRQSPGKGLEWLGVIWTGGDTNFNSAFMSRLSISKDKSKSQVFLKLNSLQTDDTAIYYCVRVQYFGGSYGPMDYWGQGISVTVSS VL: DIQMTQASSYLSVSLGGRVTITCEASDHINDWLAWYQQTPGNAPRLLISGATSLETGVPSRFSGSGSGKDYTLSITSLQTEDIATYYCQQYWNTPLTFGAGTRLELK
9 |  |  |  |  |  |  | 1.11 | 0.000203 | 183000 | 2.62 | 0.000154 | 59000 | 0.08 | 0.08 | 5270 | 0.0247 | 4690 | 6.11 | 6.11 | chimeric antibody 035c (antibody, V domains shown) VH: QIQLVQSGPELRKPGETVKISCKASGYSFTNYAMNWVKQAPGKVLKWMGFINTYTGEPTYADDFKGRFAFSLETSASTAYLQINNLKNEDTATYFCTRTRGYYDFDGGAFDYWGQGTSLTVSS VL: DIVMTQSQKFMSTSIGDRVSVTCKASQNVGTHLAWYQQKPGQSPKALIFSASYRYIGVPDRFTGSGSGTDFTLTITNVQSEDLAEYFCQQYNTYPLTFGAGTKLELK
10 | -1 | 2 | 2.22 | -1 | -3 |  |  |  |  |  |  |  |  |  |  |  |  |  |  | Antibody 035 (hybridoma antibody) (antibody, V domains shown, mouse hybridoma antibody) VH: QIQLVQSGPELRKPGETVKISCKASGYSFTNYAMNWVKQAPGKVLKWMGFINTYTGEPTYADDFKGRFAFSLETSASTAYLQINNLKNEDTATYFCTRTRGYYDFDGGAFDYWGQGTSLTVSS VL: DIVMTQSQKFMSTSIGDRVSVTCKASQNVGTHLAWYQQKPGQSPKALIFSASYRYIGVPDRFTGSGSGTDFTLTITNVQSEDLAEYFCQQYNTYPLTFGAGTKLELK
